Ends that are not written are not given here.
B1: HPV-16 E7 C-terminal 12-mer peptide (30th rod, amino acids 88–99 with an added Gly) (peptide)
peptide: GIVCPICSQKPG
modifications: cysteine pairing not given here; also: bound to a polypropylene rod
notes: residues 88-98 (the C-terminus) of the E7 oncoprotein of HPV-16; a Gly added to the last C-terminal HPV-16 E7 amino acid to complete the 12-mer; The text names the region aa 89–98 in one place and 88–98 in others; also called C-terminal 88–98 peptide; C-terminal portion (aa 89–98); source: synthetic peptide, on polypropylene rods (PepSets, Mimotopes)
B2: HPV-16 E7 12-mer peptide aa 49–60 (peptide)
peptide: RAHYNIVTFCCK
modifications: cysteine pairing not given here; also: bound to a polypropylene rod
notes: residues 49-60 of the E7 oncoprotein of HPV-16; also called peptide 49–60; the 49–60 12-mer; source: synthetic peptide, on polypropylene rods (PepSets, Mimotopes)

Biological target: T1, N-6His-GSTP1 recombinant protein (human, UniProt P09211 1-210)
T1 construct: human GSTP1, ORF made by RT-PCR from HaCaT RNA, cloned through pDONR201 into pDEST17; The printed forward primer begins at the codons for Pro-Pro-Tyr-Thr (residue 2, without the first Met) and the reverse primer holds the stop codon; Gateway attB1 linker residues lie between the His tag and GSTP1; also called recombinant GSTP1; not shown: His6, N-terminal, kept
T1 sequence (P09211 whole entry): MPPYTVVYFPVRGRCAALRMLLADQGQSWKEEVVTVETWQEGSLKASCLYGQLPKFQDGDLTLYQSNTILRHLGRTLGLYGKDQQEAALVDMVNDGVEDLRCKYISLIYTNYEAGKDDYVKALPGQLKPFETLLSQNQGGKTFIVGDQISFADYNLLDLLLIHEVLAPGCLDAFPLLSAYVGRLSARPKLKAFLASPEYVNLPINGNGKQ
Assay: peptide or protein array; PepSets: 30 rod-bound 12-mers of HPV-16 E7 with a 9 amino acid overlap; recombinant GSTP1 captured by each rod detected by an immunoenzyme assay with an anti-GSTP1 polyclonal antibody
Details: both partners purified

| Binder | binding result |
| --- | --- |
| B1 | binds |
| B2 | binds |

Reference: PMC2758704, “Human Papillomavirus-16 E7 Interacts with Glutathione S-Transferase P1 and Enhances Its Role in Cell Survival” (PLoS ONE, 2009)
